The values that follow come from patent publication US20020177231A1 (published 2002).

In the test the target is T1, PYK2 (UniProt Q14289 1-1009, limits assumed).
T1 construct: Endogenous protein in cell lysate, detected with anti-PYK2 monoclonal antibody P47120 (Transduction Labs)
Nature of the test: GST pull-down from JY8-8 lysate, anti-Pyk2 immunoblot. How it is done: In preparation of cell lysate including Pyk2, JY8-8 cell lysate was prepared by disrupting 4×10⁷ exponentially growing cells in one ml of Ipegal Lysis Buffer (described above) for 10 minutes on ice. Lysate was clarified by centrifugation at 10,000 rpm in a microfuge at 4° C. JY8-8 lysate (corresponding to approximately 1×10⁷ cells) was incubated for 90 minutes with 30 μl glutathione agarose on which approximately one μg of GST or GST-containing fusion protein was immobilized. The resin was washed three times with one ml Ipegal lysis buffer.
Pyk2 present in lysates of JY8-8 cells bound specifically to GST-LD protein but not to GST alone. Pyk2 binding was detected with wild-type GST-LD, and GST-LD proteins with mutations in the second or fourth LD motifs.
On the technique in general: In western blotting, separated proteins are transferred to a membrane and probed.

T1 sequence (Q14289 whole entry): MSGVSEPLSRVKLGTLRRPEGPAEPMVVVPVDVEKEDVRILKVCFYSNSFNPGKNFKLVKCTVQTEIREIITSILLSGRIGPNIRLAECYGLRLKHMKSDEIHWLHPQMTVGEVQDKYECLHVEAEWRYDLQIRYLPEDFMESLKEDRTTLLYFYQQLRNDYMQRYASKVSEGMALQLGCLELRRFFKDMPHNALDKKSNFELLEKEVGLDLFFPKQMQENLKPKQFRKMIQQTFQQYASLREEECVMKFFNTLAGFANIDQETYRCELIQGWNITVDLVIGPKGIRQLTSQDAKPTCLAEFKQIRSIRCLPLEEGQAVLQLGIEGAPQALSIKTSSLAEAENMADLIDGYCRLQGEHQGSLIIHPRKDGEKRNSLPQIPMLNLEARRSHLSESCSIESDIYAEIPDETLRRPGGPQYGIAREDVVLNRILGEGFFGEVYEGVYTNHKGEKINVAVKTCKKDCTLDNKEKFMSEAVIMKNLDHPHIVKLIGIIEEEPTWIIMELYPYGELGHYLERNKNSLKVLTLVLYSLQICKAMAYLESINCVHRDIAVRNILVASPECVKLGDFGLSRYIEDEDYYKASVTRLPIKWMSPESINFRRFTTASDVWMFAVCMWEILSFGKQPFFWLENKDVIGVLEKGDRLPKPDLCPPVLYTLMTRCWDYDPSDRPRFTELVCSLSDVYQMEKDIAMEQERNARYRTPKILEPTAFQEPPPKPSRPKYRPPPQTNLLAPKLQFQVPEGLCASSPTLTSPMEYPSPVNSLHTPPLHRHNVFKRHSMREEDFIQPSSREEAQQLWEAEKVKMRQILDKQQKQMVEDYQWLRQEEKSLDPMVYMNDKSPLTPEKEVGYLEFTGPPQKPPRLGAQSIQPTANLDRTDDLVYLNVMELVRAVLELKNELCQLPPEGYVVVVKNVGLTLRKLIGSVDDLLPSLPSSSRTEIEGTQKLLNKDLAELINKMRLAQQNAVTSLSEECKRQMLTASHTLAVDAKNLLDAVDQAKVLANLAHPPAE

B1: GST-LD with a mutation in the third LD motif (other)
chain: EELDALLEELERSTLQDSDEYSNPAPLPLDQHSRKETNLDETSEILSIQDNTSPLPAQLVYTTNIQELNVYSEAQEPKESPPPSKTSAAAQAAALMAHLTEMQAKVAVRADAGKKHLPDKQDHKASLDSMLGGLEQELQDLGIATVPK
notes: not shown: glutathione-S-transferase (GST) encoded by vector pGEX-4T-1 (Pharmacia)
Consider B1, for which the binding result is “no binding”.
